This is an account of results in patent publication US20210324028A1 (Pfizer, published 2021).

Test [1] has as its target T1, IL-15 signaling receptor on 32D[pRF770+pRF791] cells (human CD122 plus mouse CD132) (human; mouse, UniProt P14784 27-551; P34902 23-369).
T1 sequence (looked up) 1: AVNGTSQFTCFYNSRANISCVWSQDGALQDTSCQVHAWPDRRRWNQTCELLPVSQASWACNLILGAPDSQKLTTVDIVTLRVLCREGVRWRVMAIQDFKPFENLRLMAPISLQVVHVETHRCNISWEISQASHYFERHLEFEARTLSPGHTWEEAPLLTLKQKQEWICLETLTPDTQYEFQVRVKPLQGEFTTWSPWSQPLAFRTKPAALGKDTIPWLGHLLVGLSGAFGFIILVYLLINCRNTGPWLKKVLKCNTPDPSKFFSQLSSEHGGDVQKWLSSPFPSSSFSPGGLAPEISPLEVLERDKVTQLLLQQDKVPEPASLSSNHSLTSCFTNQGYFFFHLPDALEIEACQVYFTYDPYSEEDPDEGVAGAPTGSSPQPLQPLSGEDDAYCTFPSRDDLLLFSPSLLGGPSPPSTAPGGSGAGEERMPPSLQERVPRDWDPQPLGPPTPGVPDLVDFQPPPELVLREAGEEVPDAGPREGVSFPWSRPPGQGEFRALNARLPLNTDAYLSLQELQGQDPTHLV
T1 sequence (looked up) 2: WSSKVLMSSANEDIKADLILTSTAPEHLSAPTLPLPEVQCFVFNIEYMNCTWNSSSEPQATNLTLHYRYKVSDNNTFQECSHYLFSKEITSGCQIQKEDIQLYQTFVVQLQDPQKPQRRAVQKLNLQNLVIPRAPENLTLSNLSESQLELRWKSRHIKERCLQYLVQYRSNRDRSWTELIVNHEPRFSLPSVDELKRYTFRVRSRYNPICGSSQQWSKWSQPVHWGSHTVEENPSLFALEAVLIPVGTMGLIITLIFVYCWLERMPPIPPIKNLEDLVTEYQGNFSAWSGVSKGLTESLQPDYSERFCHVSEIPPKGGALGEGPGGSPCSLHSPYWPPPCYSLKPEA
Briefly: cell-based or functional assay.

Test [2] has as its target T2, mouse PD-1 on doxycycline-induced 32D[pRF770+pRF791] cells (mouse, UniProt Q02242 25-288).
T2 sequence (looked up): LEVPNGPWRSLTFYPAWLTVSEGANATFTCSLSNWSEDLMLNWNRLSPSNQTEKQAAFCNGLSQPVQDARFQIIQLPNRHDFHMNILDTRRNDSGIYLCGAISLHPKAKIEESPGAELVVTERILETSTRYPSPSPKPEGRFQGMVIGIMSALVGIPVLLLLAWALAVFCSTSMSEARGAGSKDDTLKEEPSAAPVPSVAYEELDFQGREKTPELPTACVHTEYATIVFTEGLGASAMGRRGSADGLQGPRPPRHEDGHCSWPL
The test is described as follows: cell-based or functional assay.

Another test has as its target T3, human IL-15Rα (human, UniProt Q13261 31-205, limits assumed).
T3 construct: also called hIL-15Rα; IL-15 receptor alpha
The test is described as follows: SPR 37C, fusion captured by anti-human Fc. The gist of the method: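 Anti-PD-1–hIL-15 fusions captured at 10 μg/mL on an anti-human Fc surface, receptor injected at 37 °C in HEPES-buffered saline with 0.05% Tween-20 and 1 mg/mL BSA, pH 7.4; 5 min dissociation.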

In another test the target is T4, human IL-2Rβ (human, UniProt P14784 27-240, limits assumed).
T4 construct: also called hIL-2Rβ; IL-2 receptor beta
T4 sequence (looked up): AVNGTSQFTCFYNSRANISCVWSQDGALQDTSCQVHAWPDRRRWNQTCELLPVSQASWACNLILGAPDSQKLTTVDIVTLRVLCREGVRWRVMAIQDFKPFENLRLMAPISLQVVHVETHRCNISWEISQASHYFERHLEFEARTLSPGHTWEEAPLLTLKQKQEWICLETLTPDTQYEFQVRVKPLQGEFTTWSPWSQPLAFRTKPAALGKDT
Briefly: SPR, steady state, fusion captured. As to the method: Anti-human Fc sensor chips were prepared at 25° C. with a running buffer of 10 mM HEPES, 150 mM NaCl, 0.05% (v/v) Tween-20, pH 7.4. All surfaces of a Biacore CM4 sensor chip were activated with a 1:1 (v/v) mixture of 400 mM EDC and 100 mM NHS for 7 minutes, at a flow rate of 10 μL/min. An anti-human Fc reagent (Goat anti-human IgG Fc-γ specific, SouthernBiotech, Birmingham, Ala., Catalog #2014-01) was diluted to 50 μg/mL in 10 mM sodium acetate (pH 4.5) and injected on all flow cells for 7 minutes at 20 μL/min. All flow cells were blocked with 100 mM ethylenediamine in 200 mM Borate buffer pH 8.5 for 7 minutes at 10 μL/min.
All protein interaction experiments were performed at 37° C. using a running buffer of 10 mM HEPES, 150 mM NaCl, 0.05% (v/v) Tween-20, pH 7.4, 1 mg/mL BSA. Anti-PD-1-hIL-15 fusion proteins were captured at 10 μg/mL at a flow rate of 10 μL/min for 2 minutes. Different fusion proteins were captured in flow cells 2, 3 and 4. No protein was captured onto flow cell 1 which was used as a reference surface. […] After each analyte injection, dissociation was monitored for 5 minutes followed by regeneration of all flow cells with three 60-second injections of 75 mM phosphoric acid. […] For kinetic analysis, the double-referenced sensorgrams were fit globally to a simple 1:1 Langmuir with mass transport binding model using Biacore T200 Evaluation Software version 2.0. For steady-state affinity analysis, the double-referenced equilibrium binding responses were fit with a 1:1 Langmuir steady-state model using Biacore T200 Evaluation Software version 2.0.

Test [3] has as its target T1, IL-15 signaling receptor on …. The test is described as follows: cell-based or functional assay. This is another data set of the same source.
In test [4] the target is T2, mouse PD-1 on doxycycline-induced …. Briefly: cell-based or functional assay. The source holds these as a separate data set.
Test [5] shares this target. Briefly: flow cytometry, Alexa647-labelled protein on doxycycline-induced 32D[pRF770+pRF791] cells (mouse PD-1 together with CD122 plus CD132), 4 C 30 min, % A647-positive cells. The protocol: (§1) The following cell lines were suspended in growth medium to 0.7*10\hat{ }6 cells/mL and, cultured for 16 hrs: 1) untransduced 32D (parental line); 2) 32D[pRF770+pRF791]; and 3) 32D[pRF770+pRF791] grown in the presence of 1 ug/mL doxycycline, to induce PD-1 expression. Cultures were then resuspended to a final concentration of 1.0*10\hat{ }6 cells/mL, and 0.1 mL of each suspension was plated into separate wells of a 96-well round-bottom plate, of sufficient number required for the experiment. Each Alexa647-labeled antibody or antibody-cytokine chimeric proteins were then added to a unique well to obtain a final concentration of 500 nM, 100 nM, […], 1 nM, 0.1 nM, 0.01 nM, or 0.001 nM in a given well. Plates were incubated at 4° C. for 30′, and then the cells were pelleted by centrifugation (300×g, 5′) and resuspended in 0.2 mL of PBS. This wash step was repeated twice. Upon final resuspension, the cells were analyzed on an LSRII flow cytometer. Data were analyzed using FlowJo version 10.

For test [6], the target named is T1, IL-15 signaling receptor on …. Briefly: cell-based or functional assay. The source holds these as a separate data set.
In test [7] the target is T2, mouse PD-1 on doxycycline-induced …. Briefly: cell-based or functional assay. This is another data set of the same source.
The target in test [8] is T1, IL-15 signaling receptor on …. The test is described as follows: cell-based or functional assay. This is another data set of the same source.
Test [9] has as its target T2, mouse PD-1 on doxycycline-induced …. Briefly: cell-based or functional assay. The source holds these as a separate data set.
For test [10] the target is unchanged. The test is described as follows: flow cytometry, Alexa647-labelled protein on doxycycline-induced 32D[pRF770+pRF791] cells, 4 C 30 min, % A647-positive cells. The protocol:
as §1

The target of test [11] is T1, IL-15 signaling receptor on …. Briefly: flow cytometry, Alexa647-labelled protein on uninduced 32D[pRF770+pRF791] cells (human CD122 plus mouse CD132), 4 C 30 min, % A647-positive cells. As to the method: as §1

Read-outs that look alike come from different tables or passages of the source.

T3 sequence (Q13261 31-205 limits assumed): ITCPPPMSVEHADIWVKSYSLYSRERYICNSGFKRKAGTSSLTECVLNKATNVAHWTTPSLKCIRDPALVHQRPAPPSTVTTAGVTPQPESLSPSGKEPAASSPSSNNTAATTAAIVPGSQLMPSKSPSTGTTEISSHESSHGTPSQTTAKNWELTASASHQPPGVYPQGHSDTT

B1: xmPD-1-hIL15 NQ mutant (other)
heavy 1: HHHHHHHHGGGGSGSGGEVQLVESGGGLVKPGGSLELSCAASGFTFSSYWMSWVRQAPEKGLEWVAAISPSGGSTYYADSVKGRFTISRDNAKNTLFLQMTSLRSEDTAMYYCAKESWGAYYDLWGQGTTVTVSSASTKGPSVFPLAPCSRSTSESTAALGCLVKDYFPEPVTVSWNSGALTSGVHTFPAVLQSSGLYSLSSVVTVPSSNFGTQTYTCNVDHKPSNTKVDKTVERKCRVRCPRCPAPPVAGPSVFLFPPKPKDTLMISRTPEVTCVVVAVSHEDPEVQFNWYVDGVEVHNAKTKPREEQFNSTFRVVSVLTVVHQDWLNGKEYKCKVSNKGLPSSIEKTISKTKGQPREPQVYTLPPSREEMTKNQVSLTCLVKGFYPSDIAVEWESNGQPENNYKTTPPMLDSDGSFFLYSRLTVDKSRWQQGNVFSCSVMHEALHNHYTQKSLSLSPGK
heavy 2: EVQLVESGGGLVKPGGSLELSCAASGFTFSSYWMSWVRQAPEKGLEWVAAISPSGGSTYYADSVKGRFTISRDNAKNTLFLQMTSLRSEDTAMYYCAKESWGAYYDLWGQGTTVTVSSASTKGPSVFPLAPCSRSTSESTAALGCLVKDYFPEPVTVSWNSGALTSGVHTFPAVLQSSGLYSLSSVVTVPSSNFGTQTYTCNVDHKPSNTKVDKTVERKCEVECPECPAPPVAGPSVFLFPPKPKDTLMISRTPEVTCVVVAVSHEDPEVQFNWYVDGVEVHNAKTKPREEQFNSTFRVVSVLTVVHQDWLNGKEYKCKVSNKGLPSSIEKTISKTKGQPREPQVYTLPPSREEMTKNQVSLTCEVKGFYPSDIAVEWESNGQPENNYKTTPPMLDSDGSFFLYSKLTVDKSRWQQGNVFSCSVMHEALHNHYTQKSLSLSPGSGGGGGTATATPGANWVNVISDLKKIEDLIQSMHINATLFTESDVHPSCKVTAMKCFLLQLQVISLQSGDASIHDTVENLIILANNSLSSNGNVTESGCKECQELEQKNIKEFLQSFVHIVQMFINT
light: DIVMTQSPSSLSVSAGDKVTMSCRASQGISSWLAWYQQKPWQPPKLLIYKASTLESGVPDRFTGSGSGTDFTLTISSVQAEDLAVYYCQQSYSTPWTFGGGTKLEIKGTVAAPSVFIFPPSDEQLKSGTASVVCLLNNFYPREAKVQWKVDNALQSGNSQESVTEQDSKDSTYSLSSTLTLSKADYEKHKVYACEVTHQGLSSPVTKSFNRGEC
notes: also called xmPD-1-IL15 NQ; xmPD1-IL15 NQ
Regarding B1, the “pSTAT5 EC50 on PD-1(low) 32D reporter cells” value in [1] is 13.3 nM; in test [3], 1.72 nM; in test [6], 21.1 nM; in test [8] it was 7.29 nM. Moreover, the “Fold change = EC50 (PD-1(low))/EC50 (PD-1+)” value in test [2] stood at 1230 fold; in [4], 300 fold; in test [7] it was 223 fold; in test [9], 241 fold. The “pSTAT5 EC50 on PD-1+ 32D reporter cells” value came to 0.0109 nM in [2], 0.00574 nM in test [4], 0.09 nM in test [7] and 0.0303 nM in test [9]. Also, in the test with human IL-15Rα, the binding result is given as “no binding (tested: 3000 nM)”. The Kd in the test with human IL-2Rβ came out at 518 nM. Also, the “EC50 (read off the curve)” value in [5] was roughly 0.03 nM.

B2: xmPD-1 (antibody, human IgG2, kappa, V domains shown)
VH: EVQLVESGGGLVKPGGSLELSCAASGFTFSSYWMSWVRQAPEKGLEWVAAISPSGGSTYYADSVKGRFTISRDNAKNTLFLQMTSLRSEDTAMYYCAKESWGAYYDLWGQGTTVTVSS
VL: DIVMTQSPSSLSVSAGDKVTMSCRASQGISSWLAWYQQKPWQPPKLLIYKASTLESGVPDRFTGSGSGTDFTLTISSVQAEDLAVYYCQQSYSTPWTFGGGTKLEIKG
notes: human IgG2dA constant regions; also called anti-mouse PD-1 antibody; clone F12.3
As for B2, the “EC50 (read off the curve)” value in test [10] is roughly 0.03 nM. Moreover, the binding result in test [11] is reported as “no binding (tested: 500 nM)”.
